According to US20160215040A1 (Regeneron, published 2016):
Where a chain is given by its changes, count along the chain named.

B1: H1H17219P (antibody, V domains shown)
VH: QVQLQQSGPGLVKPSQTLSLTCAISGDSVSSNIPAWNWIRQSPSRGLEWLGRTYYRSKWYNDYAVSVKSRITINPDTSKNHFSLQLNSVTPEDTAVYYCARGRVYDRSSRYFYAMDVWGQGTTVTVSS
VL: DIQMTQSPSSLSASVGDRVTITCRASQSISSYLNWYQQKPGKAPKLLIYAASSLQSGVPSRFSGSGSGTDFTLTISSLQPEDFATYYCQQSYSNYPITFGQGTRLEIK
B2: H1H17214P (antibody, V domains shown)
VH: EVQLVESGGGLVQPGGSLRLSCAASKFTFDTFAMSWVRQAPGKGLEWVSFISSSGGRTDYVDSVKGRFTISRDNSKNTLYLQMNSLRAEDTAVYYCAKERTIFGVLILGPDNYGMDVWGQGTTVTVSS
VL: DIQMTQSPSSLSAFVGDRVTITCRASQSISTYLNWYQQKPGKAPKLLIYAASSLQSGVSSRFSGSGSGTDFTLTISSLQPEDFATYYCQQSYSAPPITFGQGTRLEIK
B3: H1M17354N (antibody, V domains shown)
VH: QVQLVQSGAEVKKPGASVKVSCKASGYTFTSYYMHWVRQAPGQGLEWLGIINPSGGSTSYAQKFQGRVTMTRDTSTSTVYMELSSLRSEDTAVYYCARETGEAGEVFNYWGQGTQVTVSS
VL: B2 VL with F14S, S28I, T31R, Q38H, L46V, S53T, S59P, A94T
notes: also called HCAF05C08-22
B4: H1H17203P (antibody, V domains shown)
VH: QVQLVESGGGVVQPGRSLRLSCAASGFTFNNYGMHWVRQAPGMGLEWVAVIWHDGSDKYYADSVKGRFTISRDNSKNTLYLQMNSLRAEDTAVYYCARNWNLFDYWGQGTLVTVSS
VL: B2 VL with F14S, V19I, N34H, S53T, S59P, Y92F, A94T, T98N, R104K
B5: H1H17223P (antibody, V domains shown)
VH: EVQLVESGGGLVQPGGSLRLSCAASGFTFRTYDMHWVRQATGKGLEWVSAIGTAGDTYYPGSVKGRFTISRENAKNSLYLQMNSLRAGDTAVYYCARTIFGVVLTFDYWGQGTLVTVSS
VL: B2 VL with F14S, T31S, Y32S, Q55H, S59P, S91T, A94I, I97T, R104K, L105V
B6: H1H17199P (antibody, V domains shown)
VH: EVQLVESGGGLVQPGGSLRLSCAASGFTFSDHYMVWVRQAPGKGLEWVGRTRNKANSYSTEYAASVKGRFTISRDDSKKSLYLQMNSLKTEDTAVYYCARGGETLWFGESNYGMDVWGQGTTVTVSS
VL: EIVLTQSPDTLSLSPGERATLSCRASQSVSSTYLAWYQQKPGQAPSLLIYGASSRATGIPDRFSGSGSGTDFTLTISRLEPEDFAVYYCQQYGRSPLTFGGGTKVEIK
B7: H1H17139P (antibody, V domains shown)
VH: EVQLVESGGGLVQPGGSLRLSCAASGFTFSSYDMHWVRQATGKGLEWVSAIGTAGDTYYPGSVKGRFTISRENAKNSLYLQMNSLRAGDTAVYYCARTWFGELYFDYWGQGTLVTVSS
VL: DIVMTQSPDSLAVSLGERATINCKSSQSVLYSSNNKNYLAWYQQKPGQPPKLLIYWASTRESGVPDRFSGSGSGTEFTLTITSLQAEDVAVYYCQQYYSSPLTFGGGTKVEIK
B8: H1H17228P (antibody, V domains shown)
VH: EVQLVESGGGLVQPGGSLRLSCAASGFTFSNYAMIWVRQAPGKGLEWVSGISGSGGSIYYADSVKGRFTISRDNSKNTLYLQMNSLRAEDTAVYYCAKEGIISMVRGLINYYHGMDVWGQGTTVTVSS
VL: not shown

Target: T1, Ebola virus GP, Sudan strain, on VLPs (Ebola virus, Sudan strain, UniProt Q7T9D9 33-676)
T1 construct: also called Sudan NC_006432
T1 sequence: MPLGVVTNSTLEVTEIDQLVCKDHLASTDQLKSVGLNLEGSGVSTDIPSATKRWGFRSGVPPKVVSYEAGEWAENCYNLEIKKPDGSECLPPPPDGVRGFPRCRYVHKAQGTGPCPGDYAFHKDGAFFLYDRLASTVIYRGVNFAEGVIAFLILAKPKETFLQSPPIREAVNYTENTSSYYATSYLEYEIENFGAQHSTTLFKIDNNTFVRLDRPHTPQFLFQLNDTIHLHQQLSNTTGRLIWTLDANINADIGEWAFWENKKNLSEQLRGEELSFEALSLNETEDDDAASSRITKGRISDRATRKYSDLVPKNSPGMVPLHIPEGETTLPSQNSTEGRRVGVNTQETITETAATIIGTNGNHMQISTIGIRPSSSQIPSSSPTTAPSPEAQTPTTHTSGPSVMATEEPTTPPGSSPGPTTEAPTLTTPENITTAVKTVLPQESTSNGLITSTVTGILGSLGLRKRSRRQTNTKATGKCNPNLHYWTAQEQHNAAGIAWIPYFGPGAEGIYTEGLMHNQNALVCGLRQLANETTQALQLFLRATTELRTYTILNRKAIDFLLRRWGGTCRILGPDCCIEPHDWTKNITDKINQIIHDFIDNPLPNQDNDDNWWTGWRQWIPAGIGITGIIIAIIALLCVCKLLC
Assay: MSD, VLPs coated

Row | Binder | binding result
1 | B1 | no binding
2 | B2 | no binding
3 | B3 | no binding
4 | B4 | no binding
5 | B5 | no binding
6 | B6 | no binding
7 | B7 | no binding
8 | B8 | no binding

Target: T2, Ebola virus GP, Cote d'Ivoire strain, on VLPs (Ebola virus, Cote d'Ivoire strain, UniProt Q66810 33-676)
T2 construct: also called Cote d'Ivoire FJ217162; Ivory Coast
T2 sequence: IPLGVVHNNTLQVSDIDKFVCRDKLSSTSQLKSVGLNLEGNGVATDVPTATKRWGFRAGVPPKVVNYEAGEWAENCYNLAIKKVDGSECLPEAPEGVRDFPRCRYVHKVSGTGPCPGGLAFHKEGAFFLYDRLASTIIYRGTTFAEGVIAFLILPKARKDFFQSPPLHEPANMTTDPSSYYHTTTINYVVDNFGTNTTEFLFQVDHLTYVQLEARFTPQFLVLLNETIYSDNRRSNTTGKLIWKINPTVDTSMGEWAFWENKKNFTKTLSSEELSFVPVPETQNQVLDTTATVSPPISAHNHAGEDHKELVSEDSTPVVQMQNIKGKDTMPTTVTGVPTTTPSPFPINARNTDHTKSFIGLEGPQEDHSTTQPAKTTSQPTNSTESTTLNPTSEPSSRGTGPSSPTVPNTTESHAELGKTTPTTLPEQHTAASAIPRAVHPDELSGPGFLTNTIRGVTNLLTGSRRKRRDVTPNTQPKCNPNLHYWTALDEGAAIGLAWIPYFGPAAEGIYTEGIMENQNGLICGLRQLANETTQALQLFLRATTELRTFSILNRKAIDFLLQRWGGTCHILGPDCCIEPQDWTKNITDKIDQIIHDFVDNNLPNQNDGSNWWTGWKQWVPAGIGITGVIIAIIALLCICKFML
Assay: MSD, VLPs coated

Row | Binder | binding result
9 | B1 | no binding
10 | B2 | no binding
11 | B3 | no binding
12 | B4 | no binding
13 | B5 | no binding
14 | B6 | no binding
15 | B7 | no binding
16 | B8 | no binding

Target: T3, Ebola virus GP with a C-terminal polyhistidine tag (Sino Biologicals, Catalog #40442-V08B1) (Ebola virus, UniProt P87666 33-650)
T3 construct: also called EbolaGP.his; Ebola virus GP.his
Assay: SPR 25C, mAb captured

Row | Binder | Kd | koff | kon | t½
17 | B1 | 0.934 nM | 2.9e-05 s⁻¹ | 31100 M⁻¹ s⁻¹ | 398 min
18 | B2 | ≤ 0.266 nM | ≤ 1e-05 s⁻¹ | 37600 M⁻¹ s⁻¹ | ≥ 1160 min
19 | B3 | 63.9 nM | 0.00316 s⁻¹ | 49400 M⁻¹ s⁻¹ | 3.7 min
20 | B4 | 6.04 nM | 0.000168 s⁻¹ | 27800 M⁻¹ s⁻¹ | 68.7 min
21 | B5 | 2.03 nM | 6.08e-05 s⁻¹ | 30000 M⁻¹ s⁻¹ | 190 min
22 | B6 | 18.9 nM | 0.000236 s⁻¹ | 12500 M⁻¹ s⁻¹ | 49 min
23 | B7 | 7.13 nM | 0.000163 s⁻¹ | 22900 M⁻¹ s⁻¹ | 70.8 min
24 | B8 | 37.6 nM | 0.00169 s⁻¹ | 44900 M⁻¹ s⁻¹ | 6.9 min

Target: T3, Ebola virus GP with a C-terminal …
Assay: SPR 37C, mAb captured

Row | Binder | Kd | koff | kon | t½
25 | B1 | 0.227 nM | ≤ 1e-05 s⁻¹ | 44100 M⁻¹ s⁻¹ | ≥ 1160 min
26 | B2 | 4.2 nM | 0.000154 s⁻¹ | 36700 M⁻¹ s⁻¹ | 74.9 min
27 | B3 | 113 nM | 0.00573 s⁻¹ | 50800 M⁻¹ s⁻¹ | 2 min
28 | B4 | 30.9 nM | 0.00119 s⁻¹ | 38500 M⁻¹ s⁻¹ | 9.7 min
29 | B5 | 6.89 nM | 0.000242 s⁻¹ | 35100 M⁻¹ s⁻¹ | 47.7 min
30 | B6 | 42.2 nM | 0.00128 s⁻¹ | 30400 M⁻¹ s⁻¹ | 9 min
31 | B7 | 20.6 nM | 0.000512 s⁻¹ | 24800 M⁻¹ s⁻¹ | 22.5 min
32 | B8 | 52.3 nM | 0.00383 s⁻¹ | 73200 M⁻¹ s⁻¹ | 3 min

Target: T4, hCNTFR.mmh (ciliary neurotrophic factor receptor.mmh) (human (printed as hCNTFR), UniProt P26992 23-342)
T4 construct: also called negative control protein; not shown: mmh (myc-myc-hexahistidine) tag
T4 sequence: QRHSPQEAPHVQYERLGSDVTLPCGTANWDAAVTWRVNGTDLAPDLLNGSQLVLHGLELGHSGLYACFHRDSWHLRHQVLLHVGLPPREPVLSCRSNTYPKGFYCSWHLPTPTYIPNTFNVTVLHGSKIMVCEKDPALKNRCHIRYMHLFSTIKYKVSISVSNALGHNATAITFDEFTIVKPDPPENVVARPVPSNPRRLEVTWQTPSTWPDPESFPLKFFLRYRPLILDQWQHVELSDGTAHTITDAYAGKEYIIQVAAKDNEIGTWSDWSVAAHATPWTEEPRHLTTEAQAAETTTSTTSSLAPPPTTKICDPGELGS
Assay: BLI, mAb captured, 25C

Row | Binder | binding result
33 | B1 | no binding (tested: below 0.10 nm at 300 nM)
34 | B2 | no binding (tested: below 0.10 nm at 300 nM)
35 | B3 | no binding (tested: below 0.10 nm at 300 nM)
36 | B4 | no binding (tested: below 0.10 nm at 300 nM)
37 | B5 | no binding (tested: below 0.10 nm at 300 nM)
38 | B6 | no binding (tested: below 0.10 nm at 300 nM)
39 | B7 | no binding (tested: below 0.10 nm at 300 nM)
40 | B8 | no binding (tested: below 0.10 nm at 300 nM)

Target: T3, Ebola virus GP with a C-terminal …
Assay: SPR 37C, mAb captured, pH chase

Row | Binder | t½ ratio pH 7.4/pH 5.0 | t½ ratio pH 7.4/pH 6.0
41 | B1 | 1 | 1
42 | B2 | 1 | 1
43 | B3 | 1.3 | 1.3
44 | B4 | 0.1 | 0.2
45 | B5 | 0.4 | 0.4
46 | B6 | 0.1 | 0.4
47 | B7 | 0.2 | 0.2
48 | B8 | 0.5 | 0.6
